B1: IMPA1 (parent)
chain: FIGEESVAAGEKSILTDNPTWIID
B2: RHOBTB3 (parent)
chain: KVVEAHKIVLCAVSHVFMLLFNVK
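Note: lentivirally expressed fusions sorted by FACS into six bins by GFP to DsRed ratio, PSI derived from sequencing read proportions per bin multiplied by bin number.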

The variants in one data set derive from B1. The data set is described as follows: protein stability index of a GFP-peptide fusion (GPS, HEK-293T) (PSI 1-6); higher = more stable. As to conditions: c terminus: a fixed tail appended.
Take GIGEESVAAGEKSILTDNPTWIID: the protein stability index came out at 4.86.
Regarding RIGEESVAAGEKSILTDNPTWIID, the protein stability index is 4.38.
The same measure, in the same setting: as for YIGEESVAAGEKSILTDNPTWIID, the figure is 2.54; as for FIGEESVAASEKSILTDNPTWIID, 2; as for FIGEESVAAMEKSILTDNPTWIID, 2.2.
Still for that read-out and setting: next, FIGEESVAAGEKSILTDNPTWIRD: 3.9.
For FIGEESVAAGEKSPLTDNPTWIID, the protein stability index worked out at 2.33.
As for FIGEESVAAGEKSGLTDNPTWIID, the protein stability index is 2.38.
The same measure, in the same setting: as for FIGEESVAAGEKSALTDNPTWIID, the figure is 2.47.
On the same count and under the same terms, next, FIGEESVAAGEKSWLTDNPTWIID: 2.22; FIGEESVAGGEKSILTDNPTWIID: 2.09; FIGEESVAEGEKSILTDNPTWIID: 2.42.
With FIGEESVAIGEKSILTDNPTWIID, the protein stability index came out at 1.81.
Consider FIVEESVAAGEKSILTDNPTWIID, for which the protein stability index was 2.8.
Take FIPEESVAAGEKSILTDNPTWIID: the protein stability index worked out at 1.87.
Regarding FIAEESVAAGEKSILTDNPTWIID, the protein stability index worked out at 2.05.
Consider FIKEESVAAGEKSILTDNPTWIID, for which the protein stability index was determined as 2.17.
For the variant FIEEESVAAGEKSILTDNPTWIID, the protein stability index was determined as 3.55.
In the case of FIGEESVAAGEKSILTDNVTWIID, the protein stability index stood at 2.39.
In the case of FIGEESVAAGEKSILTDNWTWIID, the protein stability index is 1.96.
In the case of FIGEESVAAGEKSILTDNQTWIID, the protein stability index is 2.92.
Take FIGEESVAAGEKSINTDNPTWIID: the protein stability index was found to be 2.78.
With FIGEESVAAGEKSIKTDNPTWIID, the protein stability index was determined as 2.47.
For FIGEESVAAGEKSISTDNPTWIID, the protein stability index stood at 2.33.
FIGEESVAAGEKSILTDNPTDIID: the protein stability index was found to be 4.85.
Consider FIGEESVAAGEKSILTDNPTSIID, for which the protein stability index was 4.41.
FIGEESVAAGEKSILTDNPTVIID: the protein stability index is 4.95.
On to FIGEESVAAGEKSILTDNPTWIIH, for which the protein stability index was 2.01.
On to FIGEESVAAGEKSILTDNPTWIIS, for which the protein stability index is 1.76.
With FIGFESVAAGEKSILTDNPTWIID, the protein stability index was found to be 3.31.
Regarding FIGCESVAAGEKSILTDNPTWIID, the protein stability index amounted to 2.04.
On to FIGSESVAAGEKSILTDNPTWIID, for which the protein stability index turned out to be 1.8.
Turning to FIGVESVAAGEKSILTDNPTWIID, the protein stability index was 1.53.
Consider FIGEERVAAGEKSILTDNPTWIID, for which the protein stability index was found to be 1.51.
As to FIGEECVAAGEKSILTDNPTWIID, the protein stability index is 1.7.
Take FIGEEQVAAGEKSILTDNPTWIID: the protein stability index stood at 2.42.
On to FIGEESVGAGEKSILTDNPTWIID, for which the protein stability index was 2.46.
On the same count and under the same terms, as for FIGEESVAAGEVSILTDNPTWIID, the figure is 2.11; as for FIGEESVAAGEASILTDNPTWIID, 2.25; as for FIGEESVAAGECSILTDNPTWIID, 1.93.
FIGEESVAAGEQSILTDNPTWIID: the protein stability index came to 1.97.
With FIGEESVAAGEKSILTDNPTWWID, the protein stability index was 2.33.
On to FIGEESVAAGEKSILTDNPTWFID, for which the protein stability index came out at 2.01.
FIGEESVAAGEKSILTMNPTWIID: the protein stability index stood at 2.13.
On the same count and under the same terms, as for FIGEESVAAGEKSILTFNPTWIID, the figure is 2.25; as for FIGEESVAAGEKSILTCNPTWIID, 1.66; as for FIGEESVAAGEKSILQDNPTWIID, 2.19.
Consider FIGEESVAAGEKSILPDNPTWIID, for which the protein stability index is 1.26.
On to FIGEESVAAGEKSILWDNPTWIID, for which the protein stability index stood at 1.72.
With FIGEESVAAGEKSILDDNPTWIID, the protein stability index was determined as 3.17.
Regarding FIGECSVAAGEKSILTDNPTWIID, the protein stability index amounted to 2.7.
The same measure, in the same setting: next, FIGEVSVAAGEKSILTDNPTWIID: 3.68; FIGEKSVAAGEKSILTDNPTWIID: 1.88; FIGENSVAAGEKSILTDNPTWIID: 1.53.
With FIGEESVAAGEKSILTDNPEWIID, the protein stability index was 3.67.
On the same count and under the same terms, as for FIGEESVAAGEKSILTDNPWWIID, the figure is 2.03; as for FIGEESVAAGEKSILTDNPNWIID, 3.1; as for FIGEESVAAGEKSILTDNPQWIID, 3.09.
FIGEESVAAGEKSILTDNPVWIID: the protein stability index came to 2.65.
On to FKGEESVAAGEKSILTDNPTWIID, for which the protein stability index stood at 4.42.
Still for that read-out and setting: as for FDGEESVAAGEKSILTDNPTWIID, the figure is 4.79.
On the same count and under the same terms, as for FYGEESVAAGEKSILTDNPTWIID, the figure is 3.4.
Still for that read-out and setting: as for FMGEESVAAGEKSILTDNPTWIID, the figure is 3.7.
FIGEESEAAGEKSILTDNPTWIID: the protein stability index worked out at 3.03.
With FIGEESVAAGEKSILTDTPTWIID, the protein stability index worked out at 2.84.
Consider FIGEESVAAGEKSILTDYPTWIID, for which the protein stability index turned out to be 2.62.
For FIGEESVAAGEKSILTDCPTWIID, the protein stability index was found to be 2.64.
Still for that read-out and setting: as for FIGEESVAAGEKSILTDKPTWIID, the figure is 2.73.
In the case of FIGEESVAAGEKSILTDAPTWIID, the protein stability index was 3.01.
Same read-out and setting: as for FIGEESVAAGEKSILTDSPTWIID, the figure is 3.05.
The same measure, in the same setting: as for FIGEESVAAGNKSILTDNPTWIID, the figure is 2.04; as for FIGEESVAAGQKSILTDNPTWIID, 1.98; as for FIGEESVAAGGKSILTDNPTWIID, 1.96.
For the variant FIGEESVAAGEKHILTDNPTWIID, the protein stability index was 1.96.
FIGEESVAAGEKCILTDNPTWIID: the protein stability index stood at 2.27.

The variants in a further data set derive from B2. The description is as above. As to conditions: c terminus: a fixed tail appended.
Take KVVEAHKMVLCAVSHVFMLLFNVK: the protein stability index amounted to 3.3.
Turning to KVVEAHKIVLCAVSHVFMLLFNVW, the protein stability index was found to be 2.42.
In the case of KVVEAHKIVLCAVSHVFMLLFNVT, the protein stability index was determined as 2.95.
As to KVVEAHKIVLCAVSHVFMLLFNVH, the protein stability index came out at 1.55.
In the case of GVVEAHKIVLCAVSHVFMLLFNVK, the protein stability index is 2.31.
In the case of LVVEAHKIVLCAVSHVFMLLFNVK, the protein stability index is 3.15.
KVVEAHKIVLCAVSTVFMLLFNVK: the protein stability index came to 1.92.
On to KVVEAHKIVLCAVSDVFMLLFNVK, for which the protein stability index was found to be 3.14.
On the same count and under the same terms, as for KVVEAHKIVLCASSHVFMLLFNVK, the figure is 2.92; as for KVVEAHKIVLCAVSHPFMLLFNVK, 3.16.
Same read-out and setting: as for KVVEAHKIVLCAVSHEFMLLFNVK, the figure is 3.26; as for KVVENHKIVLCAVSHVFMLLFNVK, 2.07; as for KVVEAHKIVLCAVSHVFLLLFNVK, 3.85.
For KVVEAHKIVLCAVSHVFTLLFNVK, the protein stability index worked out at 2.23.
The same measure, in the same setting: next, KVVEAHKIVWCAVSHVFMLLFNVK: 1.55.
KVVEAHKIVLCAVNHVFMLLFNVK: the protein stability index is 3.59.
For KVVEAHKIVLCAVRHVFMLLFNVK, the protein stability index is 1.41.
For the variant KVVEAHKIRLCAVSHVFMLLFNVK, the protein stability index worked out at 3.25.
In the case of KVVEAHKIDLCAVSHVFMLLFNVK, the protein stability index stood at 2.67.

For the origin of these results see the supplement of paper PMC10567573.
